In PMC5733473:

Tested on: SinR (Bacillus subtilis)
Assay: EMSA
Conditions: EMSA: 15 mM Tris-Cl, 4 mM MOPS-KOH, 15 mM KCl, 50 mM NaCl, 0.8 mM MgCl2, 0.6 mM DTT, 12.5% glycerol, pH 7.8, 1 ug poly(dI-dC) in 16 ul, 20 fmol probe, 28 C …

For Fm0 PkinB(-39/+104), the Kd (SinR-2 site, binding stated (also given as >100 nM)) was greater than 400 nM.

With PkinB(-31/+104) the Kd (SinR-2 site, binding stated) was greater than 100 nM.

In the case of PkinB(-55/+10) WT, the Kd (SinR-2 site, binding stated) is reported as greater than 100 nM.

In the case of PkinB(-75/+10) G-45A, the binding signal (fold lower affinity) (SinR-1 site (upper band)) is reported as 2.

Work on PkinB(-75/+10) delta5 G-45A yielded a Kd (SinR-2 site (SinR-1 not bound)) of 10 nM.

For PkinB(-75/-7) delta5 G-45A, the Kd (SinR-2 site) was 10 nM.

Rm0 PkinB(-124/-38) showed a Kd (SinR-1 site) of 50 nM.
